A short description of the data set: self-splicing fitness, log relative to wild type (ln ratio); higher = more splicing; Tetrahymena group I intron in knt gene, E. coli kanamycin selection, DiMSum; sequences stand for … in CUCUCU…GGAGGGAAAAGUUAUCAGGCAUGCACCUGGUAGCUAGUCUUUAAACCAAUAGAUUGCAUCGGUUUAAAAGGCAAGACCGUCAAAUUGCGGGAAAGGGGUCAACAGCCGUUCAGUACCAAGUCUCAGGGGAAACUUUGAGAUGGCCUUGCAAAGGGUAUGGUAAUAAGCUGACGGACAUGGUCCUAACCACGCAGCCAAGUCCUAAGUCAACAGAUCUUCUGUUGAUAUGGAUGCAGUUCACAGACUAAAUGUCGGUCGGGGAAGAUGUAUUCUUCUCAUAAGAUAUAGUCGGACCUCUCCUUAAUGGGAGCUAGCGGAUGAAGUGAUGCAACACUGGAGCCGCUGGGAACUAAUUUGUAUGCGAAAGUAUAUUGAUUAGUUUUGGAGUACUCGUGGUCG
The gist of the method:
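Fitness was computed with DiMSum as the error-weighted combination of replicate fold changes, kanamycin versus none, each normalised to wild type. The library randomised all eight intron nucleotides of the P1ex region, with the intron placed in the knt kanamycin-resistance gene on pET-22b(+) in E. coli BL21(DE3). Six replicate transformations were grown overnight at 37°C or 30°C on LB agar with or without 25 μg/mL kanamycin, plus 100 μg/mL carbenicillin, 50 μM IPTG and 0.2% rhamnose. Pooled colonies were amplicon-sequenced on an Illumina HiSeq 2500.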

± gives the uncertainty stated by the source.

As to AGCCAGCAAUAUUACGGAAC, the “self-splicing fitness (ln)” value is, setting by setting: (30 °C) -2.72 ± 0.18; (37 °C) -3.1 ± 0.3.
For AGCCAGCAAUAUUACGGAUC the same measures were -2.03 ± 0.1 and -1.25 ± 0.13.
On the same counts, the results for AGCCAGCAAUAUUACGGCAA are -0.763 ± 0.067 and -0.321 ± 0.075.
For AGCCAGCAAUAUUACGGCUU the same measures were -4.74 ± 0.41 and -2.89 ± 0.21.
For AGCCAGCAAUAUUACGGGUC, the “self-splicing fitness (ln)” value (30 °C) was -3.28 ± 0.18 and the “self-splicing fitness (ln)” value (37 °C) was -2.13 ± 0.2.
On the same counts, the results for AGCCAGCAAUAUUACGGUGA are -1.82 ± 0.091 and -1.2 ± 0.089.
For AGCCAGCAAUAUUACGUUCG, the “self-splicing fitness (ln)” value was -3.46 ± 0.19 (30 °C) and -2.48 ± 0.22 (37 °C).
In the case of AGCGAGCAAUAUUACGAAAG, the “self-splicing fitness (ln)” value (37 °C) is -0.117 ± 0.3.
On to AGCGAGCAAUAUUACGAAUA, for which the “self-splicing fitness (ln)” value reads like this: (30 °C) -3.75 ± 0.46; (37 °C) -3.32 ± 0.37.
Regarding AGCGAGCAAUAUUACGACUC, the “self-splicing fitness (ln)” value is, setting by setting: (30 °C) -2.06 ± 0.21; (37 °C) -1.3 ± 0.24.
For AGCGAGCAAUAUUACGCUAG the same measures were -3.66 ± 0.29 and -2.04 ± 0.27.
For AGCGAGCAAUAUUACGCUCG the same measures were -3.5 ± 0.27 and -2.34 ± 0.49.
For AGCGAGCAAUAUUACGCUGU the same measures were -3.15 ± 0.32 and -2.08 ± 0.22.
As for AGCGAGCAAUAUUACGCUUC, the “self-splicing fitness (ln)” value is, setting by setting: (30 °C) -3.16 ± 0.24; (37 °C) -2.02 ± 0.28.
On the same counts, the results for AGCGAGCAAUAUUACGGACC are -0.957 ± 0.13 and -1.08 ± 0.18.
For AGCGAGCAAUAUUACGGAGU the same measures were -3.99 ± 0.28 and -3.15 ± 0.3.
For AGCGAGCAAUAUUACGGGAG, the “self-splicing fitness (ln)” value by setting is: (30 °C) -2.82 ± 0.2; (37 °C) -2 ± 0.29.
On the same counts, the results for AGCGAGCAAUAUUACGGUCG are -2.52 ± 0.12 and -1.86 ± 0.13.
For AGCGAGCAAUAUUACGUGGA the same measures were -2.95 ± 0.22 and -2.81 ± 0.16.
On the same counts, the results for AGCGAGCAAUAUUACGUUCG are -2.14 ± 0.37 and -2.67 ± 0.38.
For AGCGAGCAAUAUUACGUUCU, the “self-splicing fitness (ln)” value is, setting by setting: (30 °C) -2.13 ± 0.14; (37 °C) -0.892 ± 0.14.
On the same counts, the results for AGCUAGCAAUAUUACGAAGG are -4.22 ± 0.39 and -1.82 ± 0.26.
For AGCUAGCAAUAUUACGACGA the same measures were -1.17 ± 0.12 and -0.734 ± 0.14.
In the case of AGCUAGCAAUAUUACGACGU, the “self-splicing fitness (ln)” value runs as follows: (30 °C) 0.0109 ± 0.068; (37 °C) -0.112 ± 0.08.
On the same counts, the results for AGCUAGCAAUAUUACGCAAG are -4.11 ± 0.47 and -2.93 ± 0.3.
For AGCUAGCAAUAUUACGCACA the same measures were -1.51 ± 0.21 and -0.817 ± 0.2.
For the sequence AGCUAGCAAUAUUACGCCUC, the “self-splicing fitness (ln)” value by setting is: (30 °C) -2.07 ± 0.34; (37 °C) -1.46 ± 0.37.
On the same counts, the results for AGCUAGCAAUAUUACGCGGA are -2.29 ± 0.14 and -2.71 ± 0.18.
Take AGCUAGCAAUAUUACGCGUG: the “self-splicing fitness (ln)” value was -1.6 ± 0.088 (30 °C) and -1.53 ± 0.12 (37 °C).
For AGCUAGCAAUAUUACGCUUA the same measures were -1.8 ± 0.19 and -2.01 ± 0.19.
Turning to AGCUAGCAAUAUUACGGAAA, the “self-splicing fitness (ln)” value runs as follows: (30 °C) -3.11 ± 0.25; (37 °C) -0.395 ± 0.16.
With AGCUAGCAAUAUUACGGAAG, the “self-splicing fitness (ln)” value runs as follows: (30 °C) -2.35 ± 0.086; (37 °C) -1.34 ± 0.11.
For AGCUAGCAAUAUUACGGAUG the same measures were -2.3 ± 0.082 and -0.891 ± 0.095.
For AGCUAGCAAUAUUACGGCAC the same measures were -1.75 ± 0.14 and -0.45 ± 0.16.
On the same counts, the results for AGCUAGCAAUAUUACGGCGU are 0.111 ± 0.11 and -0.724 ± 0.13.
As to AGCUAGCAAUAUUACGGUGC, the “self-splicing fitness (ln)” value (30 °C) was -2.43 ± 0.17 and the “self-splicing fitness (ln)” value (37 °C) is -2.03 ± 0.22.
As to AGCUAGCAAUAUUACGGUUC, the “self-splicing fitness (ln)” value reads like this: (30 °C) -3.44 ± 0.28; (37 °C) -0.512 ± 0.17.
In the case of AGCUAGCAAUAUUACGUAAG, the “self-splicing fitness (ln)” value by setting is: (30 °C) -2.91 ± 0.12; (37 °C) -1.71 ± 0.14.
As to AGCUAGCAAUAUUACGUACC, the “self-splicing fitness (ln)” value by setting is: (30 °C) -0.329 ± 0.19; (37 °C) -0.483 ± 0.25.
On the same counts, the results for AGCUAGCAAUAUUACGUAGA are -4.65 ± 0.32 and -1.15 ± 0.14.
Regarding AGCUAGCAAUAUUACGUCUA, the “self-splicing fitness (ln)” value is -1.49 ± 0.11 (30 °C) and -0.745 ± 0.13 (37 °C).
On the same counts, the results for AGCUAGCAAUAUUACGUUAG are -3.14 ± 0.22 and -2.56 ± 0.22.
On the same counts, the results for AGGAAGCAAUAUUACGAACA are -1.85 ± 0.14 and -0.21 ± 0.2.
AGGAAGCAAUAUUACGAAGU: the “self-splicing fitness (ln)” value (30 °C) is -2.15 ± 0.24 and the “self-splicing fitness (ln)” value (37 °C) is -1.82 ± 0.33.
As for AGGAAGCAAUAUUACGAGUG, the “self-splicing fitness (ln)” value was -2.62 ± 0.13 (30 °C) and -1.8 ± 0.14 (37 °C).
On the same counts, the results for AGGAAGCAAUAUUACGAUCC are -0.54 ± 0.16 and -0.331 ± 0.17.
On the same counts, the results for AGGAAGCAAUAUUACGAUGU are -1.51 ± 0.087 and -0.634 ± 0.1.
For AGGAAGCAAUAUUACGCGGU the same measures were -4.18 ± 0.39 and -1.31 ± 0.2.
On to AGGAAGCAAUAUUACGGAAC, for which the “self-splicing fitness (ln)” value is -3.47 ± 0.26 (30 °C) and -2.96 ± 0.31 (37 °C).
For AGGAAGCAAUAUUACGGAUC the same measures were -1.75 ± 0.16 and -1.02 ± 0.22.
On the same counts, the results for AGGAAGCAAUAUUACGGAUG are -3.64 ± 0.2 and -2.37 ± 0.22.
On the same counts, the results for AGGAAGCAAUAUUACGGCUU are -3.74 ± 0.34 and -1.32 ± 0.17.
On to AGGAAGCAAUAUUACGGUUG, for which the “self-splicing fitness (ln)” value is, setting by setting: (30 °C) -3.3 ± 0.17; (37 °C) -2.23 ± 0.16.
For AGGAAGCAAUAUUACGUAAA the same measures were -2.59 ± 0.18 and -1.88 ± 0.18.
For AGGAAGCAAUAUUACGUCCU the same measures were -3.89 ± 0.16 and -2.04 ± 0.15.
For AGGAAGCAAUAUUACGUCGA the same measures were -1.4 ± 0.16 and -0.922 ± 0.16.
In the case of AGGAAGCAAUAUUACGUCGU, the “self-splicing fitness (ln)” value (30 °C) is -2.6 ± 0.14 and the “self-splicing fitness (ln)” value (37 °C) is -0.803 ± 0.12.
For AGGAAGCAAUAUUACGUCUG the same measures were -0.767 ± 0.058 and -0.387 ± 0.073.
On the same counts, the results for AGGAAGCAAUAUUACGUGAU are -3.24 ± 0.13 and -2.57 ± 0.18.
On the same counts, the results for AGGAAGCAAUAUUACGUGUG are -2.29 ± 0.077 and -1.85 ± 0.095.
With AGGAAGCAAUAUUACGUUGG, the “self-splicing fitness (ln)” value was -3.22 ± 0.3 (30 °C) and -2.33 ± 0.17 (37 °C).
On the same counts, the results for AGGAAGCAAUAUUACGUUUA are -2.27 ± 0.12 and -1.8 ± 0.14.
For AGGCAGCAAUAUUACGAAGC the same measures were -4.02 ± 0.42 and -2.73 ± 0.33.
For AGGCAGCAAUAUUACGACAA the same measures were -1.26 ± 0.14 and -0.976 ± 0.13.
Take AGGCAGCAAUAUUACGACGA: the “self-splicing fitness (ln)” value was -0.555 ± 0.12 (30 °C) and -0.00249 ± 0.14 (37 °C).
For AGGCAGCAAUAUUACGAGAC the same measures were -1.96 ± 0.13 and -2.65 ± 0.22.
For AGGCAGCAAUAUUACGAGUU the same measures were -1.69 ± 0.11 and -0.885 ± 0.1.
For AGGCAGCAAUAUUACGAUAU the same measures were -1.27 ± 0.069 and -0.399 ± 0.091.
As to AGGCAGCAAUAUUACGAUCA, the “self-splicing fitness (ln)” value (30 °C) was -0.829 ± 0.13 and the “self-splicing fitness (ln)” value (37 °C) was -0.234 ± 0.15.
On the same counts, the results for AGGCAGCAAUAUUACGAUUU are -0.23 ± 0.085 and -0.332 ± 0.1.
Consider AGGCAGCAAUAUUACGCAUA, for which the “self-splicing fitness (ln)” value was -0.866 ± 0.081 (30 °C) and -1.07 ± 0.093 (37 °C).
Regarding AGGCAGCAAUAUUACGCAUU, the “self-splicing fitness (ln)” value is -2.24 ± 0.13 (30 °C) and -0.577 ± 0.1 (37 °C).
On the same counts, the results for AGGCAGCAAUAUUACGCCGA are -1.28 ± 0.35 and -1.97 ± 0.22.
Consider AGGCAGCAAUAUUACGCCGC, for which the “self-splicing fitness (ln)” value is -2.8 ± 0.18 (30 °C) and -2.66 ± 0.29 (37 °C).
On the same counts, the results for AGGCAGCAAUAUUACGCCUG are -1.78 ± 0.14 and -0.748 ± 0.14.

These data come from the supplement of paper PMC7877785.
